We go through two substances from patent publication US20250188154A1.

Where two headings read alike, the source gives them in different places.

Assay [1] concerns the target SARS-CoV-2 Spike-2P stabilized S ectodomain trimer (SARS-CoV-2) (UniProt P0DTC2).
For assay [2], the target named is SARS-CoV-2 spike on live virus (Isolate USA-WA1/2020) (SARS-CoV-2) (UniProt P0DTC2). Kind of assay: cell-based or functional assay.
Assay [3] addresses SARS-CoV-2 Spike-2P stabilized S ectodomain trimer (SARS-CoV-2) (UniProt P0DTC2). Put plainly: ACE2 blocking, ELISA-based assay (Genscript). A general note: In an ELISA, binding on a coated surface is turned into a signal by an enzyme label.
The target in assay [4] is SARS-CoV-2 2AA MA virus spike (SARS-CoV-2) (UniProt P0DTC2). Put plainly: cell-based or functional assay.
Assay [5] has as its target SARS-CoV-2 B.1.1.7 live virus spike (SARS-CoV-2) (UniProt P0DTC2). Put plainly: cell-based or functional assay.
Assay [6] addresses SARS-CoV-2 B.1.351 live virus spike (SARS-CoV-2) (UniProt P0DTC2). Kind of assay: cell-based or functional assay.

As usually defined, the IC50 is the point on the concentration scale where inhibition reaches its midpoint. High values mean weaker potency, low ones greater potency. In general, IC80 refers to the point of the concentration-response curve where the effect stands at 80%.

DH1042 (antibody): in assay [1], the IC50 is under 0.2 µg/mL and the IC80 was determined as 0.371 µg/mL. In addition, in assay [2], the Bioqual PRNT IC50 was 0.156 µg/mL, the Bioqual PRNT IC90 was determined as 0.625 µg/mL, the Duke RBL PRNT IC50 was found to be 0.073 µg/mL and the Duke RBL PRNT IC90 was 0.625 µg/mL. Further, in assay [2], the SARS-CoV-2 neutralization IC50 turned out to be 0.071 µg/mL, the SARS-CoV-2 neutralization IC80 came out at 0.269 µg/mL, the SARS-CoV-2 neutralization IC90 was determined as 0.578 µg/mL and the SARS-CoV-2 neutralization Minimal Effective conc. stood at 0.28 µg/mL. The same substance came in with an IC50 in assay [3] of under 0.2 µg/mL.

In assay [1], DH1047 (antibody) had an IC50 of 0.078 µg/mL and an IC80 of 0.567 µg/mL. In assay [4], the live virus neutralization IC50 stood at 0.397 µg/mL. Also, the live virus neutralization IC50 in assay [5] came out at 0.081 µg/mL. In assay [6], this substance returned a live virus neutralization IC50 of 0.111 µg/mL. In assay [2], this substance had an SARS-CoV-2 neutralization IC50 of 0.124 µg/mL, an SARS-CoV-2 neutralization IC80 of 0.666 µg/mL, an SARS-CoV-2 neutralization IC90 of 1.77 µg/mL and an SARS-CoV-2 neutralization Minimal Effective conc. of 1.1 µg/mL.
